US20110117113A1, “IMMUNOGLOBULIN SINGLE VARIABLE DOMAIN DIRECTED AGAINST HUMAN CXCR4 AND OTHER CELL ASSOCIATED PROTEINS AND METHODS TO GENERATE THEM” (priority 2009, published 2011)

Columns and labels:
[1] = biological target: T1, CXCR4 (N119A) (Homo sapiens, UniProt P61073, N119A); assay: Basal inositol phosphate accumulation in HEK293T cells transiently expressing CXCR4 (N119A); type: cell-based; conditions: for functional profile on CXCR4 (N119A) (in words): ligand-induced alteration of basal inositol phosphate accumulation; for reduction of the constitutively increased basal signalling of CXCR4 (N119A): basal inositol phosphate accumulation, HEK293T cells transiently expressing CXCR4 (N119A)
T1 construct: expressed in transfected cells; host or cells: HEK293T, transient; membranes in A4, whole cells in A5
Excerpt: The functional profile of monovalent Nanobodies 238D2 and 238D4 as well as their bivalent fusion products L3 and L8 on CXCR4 (N119A) were investigated by measurement of the ligand-induced alteration of the basal inositol phosphate accumulation. HEK293T cells transiently expressing CXCR4 (N119A) show a 3-8 times higher basal rate of inositol phosphate accumulation compared to wild type CXCR4 or mock (which are virtually at the same level). […] The nanobody-induced reduction of basal inositol phosphate accumulation was antagonized by the selective neutral CXCR4 antagonist plerixafor confirming that the observed […] effects are mediated via CXCR4 (N119A).

[2] = biological target: CXCR4 mutation library clone 2396 (S178C) (human) (UniProt P61073); assay: immunofluorescence on HEK-293T expressing the clone, normalised to wild type
[3] = biological target: CXCR4 mutation library clone 913 (F189S, K308R) (human) (UniProt P61073); assay: as above
[4] = biological target: CXCR4 mutation library clone 2834 (E179V, G258E) (human) (UniProt P61073); assay: as above
[5] = biological target: CXCR4 mutation library clone 185 (E277A, I245V, N298S) (human) (UniProt P61073); assay: as above
[6] = biological target: CXCR4 mutation library clone 2270 (V196E) (human) (UniProt P61073); assay: as above
[7] = biological target: CXCR4 mutation library clone 3728 (D187A, Y157C) (human) (UniProt P61073); assay: as above
[8] = biological target: CXCR4 mutation library clone 414 (C218R, E179V, S351T) (human) (UniProt P61073); assay: as above
[9] = biological target: CXCR4 mutation library clone 3622 (E277G) (human) (UniProt P61073); assay: as above
[10] = biological target: CXCR4 mutation library clone 2184 (P191T) (human) (UniProt P61073); assay: as above
[11] = biological target: CXCR4 mutation library clone 465 (F189L, S319P, V155E) (human) (UniProt P61073); assay: as above
[12] = biological target: CXCR4 mutation library clone 709 (P163L, S178I) (human) (UniProt P61073); assay: as above
[13] = biological target: CXCR4 mutation library clone 1057 (K230E, S178R) (human) (UniProt P61073); assay: as above
[14] = biological target: CXCR4 mutation library clone 3630 (W195R) (human) (UniProt P61073); assay: as above
[15] = biological target: CXCR4 mutation library clone 2084 (D187V) (human) (UniProt P61073); assay: as above
[16] = biological target: CXCR4 mutation library clone 1129 (F189V) (human) (UniProt P61073); assay: as above
[17] = biological target: wildtype human CXCR4 (pcDNA3.1-CXCR4, expressed in HEK293T) (human) (UniProt P61073); assay: competition with [125I]-238D4, HEK293T-CXCR4 membranes
[18] = biological target: wildtype human CXCR4 (pcDNA3.1-CXCR4, expressed in HEK293T) (human) (UniProt P61073); assay: competition with [125I]-CXCL12, HEK293T-CXCR4 membranes
[19] = biological target: CXCR4 mutation library clone 914 (N192K) (human, UniProt P61073 1-352); assay: immunofluorescence on HEK-293T expressing the clone, normalised to wild type
[20] = biological target: wildtype human CXCR4 (pcDNA3.1-CXCR4, expressed in HEK293T) (human) (UniProt P61073); assay: competition with [125I]-238D2, HEK293T-CXCR4 membranes
[21] = biological target: T2, CXCR4 (Homo sapiens, UniProt P61073); assay: Competition binding, displacement of [^125I]-CXCL12 on membranes from HEK293T cells transiently expressing CXCR4; conditions: maximal displacement; membranes from HEK293T cells transiently expressing CXCR4; mean ± S.E.M.
T2 construct: expressed in transfected cells; host or cells: HEK293T, transient; membrane fraction
Procedure: (§1) Iodine incorporation and specific activity were controlled via precipitation of the protein with trichloroacetic acid.
(§2) Competition binding assay—Periplasmic fractions were screened in a competition binding assay using membranes from HEK293T cells transiently expressing CXCR4. […] Membranes were then harvested over polyethylenimine (0.5%)-treated Whatman GF/C filter plates and washed three times with ice cold binding buffer containing 500 mM NaCl. Plates were counted by liquid scintillation.
(§3) Characterization of Nanobody binding to CXCR4—Following purification, receptor binding to characteristics for 238D2 and 238D4 were investigated on cell membranes from HEK293T cells transiently expressing CXCR4.
(§4) Data analysis and presentation—Data are presented as mean±S.E.M. from n independent experiments. Concentration response curves (E/[A] curves) were fitted to the Hill equation using an iterative, least-squares method (GraphPad Prism 4.0, GraphPad Software, San Diego, Calif.) to provide maximal inhibitory effects (Imax), half maximal effective (EC50) or inhibitory concentrations (IC50). Competition binding affinities and functional antagonist affinities (Ki) were calculated using the Cheng and Prusoff equation Ki=IC50/(1+[agonist]/EC50) (Cheng & Prusoff, 1973).

[22] = biological target: T1, CXCR4 (N119A); assay: Competition binding with [125I]-CXCL12 on constitutively active CXCR4 mutant N119A; conditions: competition with [125I]-CXCL12 (40 pM); for binding to CXCR4 (N119A) (in words): highest nanobody test concentration 2 μM
Procedure: Competition binding assay—Periplasmic fractions were screened in a competition binding assay using membranes from HEK293T cells transiently expressing CXCR4. In short, periplasmic extracts (1:10) or ligands were pre-incubated with membranes in binding buffer (50 mM HEPES (pH 7.4), 1 mM CaCl2, 5 mM MgCl2, 100 mM NaCl, 0.5% bovine serum albumin) supplemented with 0.5% BSA for 1 h at 22° C. before the addition of [^125I]-CXCL12 (40 pM) or [^125I]-238D2 (3 nM) or [^125I]-238D4 (3 nM) for additional 2 h at 22° C. […] Membranes were then harvested over polyethylenimine (0.5%)-treated Whatman GF/C filter plates and washed three times with ice cold binding buffer containing 500 mM NaCl. Plates were counted by liquid scintillation.
CXCR4—specific Nanobodies behave as neutral antagonists or inverse agonists on constitutively active mutants of CXCR4—The CXCR4—specific monovalent Nanobodies 238D2 and 238D4 as well as their bivalent fusion products L3 and L8 were investigated on the constitutively active CXCR4 mutant N119A (equivalent to N3.35A in the Ballestros-Weinstein numbering of class A GPCRs). […] Despite of the large number of CAMs for other class A GPCRs and further efforts to generate additional CAMs for CXCR4 (Berchiche et al., 2007), the N119 mutants of CXCR4 remain the only known CAMs for this receptor. […] Methods: Preparation of membranes and competition binding experiments with [125I]-CXCL12 (40 pM) were performed as described before for wild type CXCR4 (vide supra).

[23] = biological target: T2, CXCR4; assay: Competition binding, displacement of [^125I]-238D2 on membranes from HEK293T cells transiently expressing CXCR4
Procedure: as §1, §2, §3, §4

[24] = biological target: T2, CXCR4; assay: Competition binding, displacement of [^125I]-238D4 on membranes from HEK293T cells transiently expressing CXCR4
Procedure: as §1, §2, §3, §4

[25] = maximal displacement, mean ± S.E.M.

T2 sequence (P61073 whole entry): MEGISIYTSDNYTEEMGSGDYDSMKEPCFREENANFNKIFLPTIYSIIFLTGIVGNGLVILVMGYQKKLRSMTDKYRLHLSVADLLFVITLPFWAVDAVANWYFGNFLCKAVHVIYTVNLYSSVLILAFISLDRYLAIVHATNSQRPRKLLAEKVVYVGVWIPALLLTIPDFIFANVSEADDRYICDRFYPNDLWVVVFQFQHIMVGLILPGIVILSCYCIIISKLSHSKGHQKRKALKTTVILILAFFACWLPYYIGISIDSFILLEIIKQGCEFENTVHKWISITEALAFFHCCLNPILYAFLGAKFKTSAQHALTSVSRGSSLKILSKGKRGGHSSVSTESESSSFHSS
Chain of wildtype human CXCR4 (pcDNA3.1-CXCR4, expressed in HEK293T) (human) (P61073 whole entry): as above
T1 sequence (P61073 whole entry N119A): as the sequence (P61073 whole entry) above, with N119A counted along it
Chain of CXCR4 mutation library clone 2834 (E179V, G258E) (human) (P61073 whole entry E179V/G258E): as the sequence (P61073 whole entry) above, with E179V, G258E counted along it
Chain of CXCR4 mutation library clone 914 (N192K) (P61073 whole entry N192K): as the sequence (P61073 whole entry) above, with N192K counted along it
Chain of CXCR4 mutation library clone 414 (C218R, E179V, S351T) (human) (P61073 whole entry E179V/C218R/S351T): as the sequence (P61073 whole entry) above, with E179V, C218R, S351T counted along it
Chain of CXCR4 mutation library clone 3630 (W195R) (human) (P61073 whole entry W195R): as the sequence (P61073 whole entry) above, with W195R counted along it
Chain of CXCR4 mutation library clone 465 (F189L, S319P, V155E) (human) (P61073 whole entry V155E/F189L/S319P): as the sequence (P61073 whole entry) above, with V155E, F189L, S319P counted along it
Chain of CXCR4 mutation library clone 913 (F189S, K308R) (human) (P61073 whole entry F189S/K308R): as the sequence (P61073 whole entry) above, with F189S, K308R counted along it
Chain of CXCR4 mutation library clone 709 (P163L, S178I) (human) (P61073 whole entry P163L/S178I): as the sequence (P61073 whole entry) above, with P163L, S178I counted along it
Chain of CXCR4 mutation library clone 185 (E277A, I245V, N298S) (human) (P61073 whole entry I245V/E277A/N298S): as the sequence (P61073 whole entry) above, with I245V, E277A, N298S counted along it
Chain of CXCR4 mutation library clone 2270 (V196E) (human) (P61073 whole entry V196E): as the sequence (P61073 whole entry) above, with V196E counted along it
Chain of CXCR4 mutation library clone 3622 (E277G) (human) (P61073 whole entry E277G): as the sequence (P61073 whole entry) above, with E277G counted along it
Chain of CXCR4 mutation library clone 2184 (P191T) (human) (P61073 whole entry P191T): as the sequence (P61073 whole entry) above, with P191T counted along it
Chain of CXCR4 mutation library clone 1057 (K230E, S178R) (human) (P61073 whole entry S178R/K230E): as the sequence (P61073 whole entry) above, with S178R, K230E counted along it
Chain of CXCR4 mutation library clone 2084 (D187V) (human) (P61073 whole entry D187V): as the sequence (P61073 whole entry) above, with D187V counted along it
Chain of CXCR4 mutation library clone 3728 (D187A, Y157C) (human) (P61073 whole entry Y157C/D187A): as the sequence (P61073 whole entry) above, with Y157C, D187A counted along it
Chain of CXCR4 mutation library clone 2396 (S178C) (human) (P61073 whole entry S178C): as the sequence (P61073 whole entry) above, with S178C counted along it
Chain of CXCR4 mutation library clone 1129 (F189V) (human) (P61073 whole entry F189V): as the sequence (P61073 whole entry) above, with F189V counted along it

Question: “CXCL12: CXCR4 reference ligand, human CXCL12 (SDF-1) [reference compound]” was tested. Which “stimulation of the mutant receptor” value ([1]; inositol phosphate accumulation, CXCR4 (N119A)) did it give?
Answer: The value was 0.4 fold over basal.

Question: What does the source list for monoclonal antibody 12G5?
Answer: % immunofluorescence [2]: 91.8%; % immunofluorescence [3]: 110%; % immunofluorescence [4]: 1.5%; % immunofluorescence [5]: 93.9%; % immunofluorescence [6]: 96.8%; % immunofluorescence [7]: 95.1%; % immunofluorescence [8]: -9.1%; % immunofluorescence [9]: 61.3%; % immunofluorescence [10]: 118%; % immunofluorescence [11]: 50.4%; % immunofluorescence [12]: 113%; % immunofluorescence [13]: 112%; % immunofluorescence [14]: 85.5%; % immunofluorescence [15]: 89.5%; % immunofluorescence [16]: 94.7%; maximal displacement (%) [17]: 90%; pKi [17]: 9.31 pKi; maximal displacement (%) [18]: 54%; pKi [18]: 9.19 pKi; % immunofluorescence [19]: 57.7%; maximal displacement (%) [20]: 89%; pKi [20]: 9.65 pKi

Question: With `c1cc(CN2CCCNCCNCCCNCC2)ccc1CN1CCCNCCNCCCNCC1` [AMD3100, reference compound] as the molecule, how does the “[^125I]-CXCL12 Displacem. (%)” value [21] read?
Answer: Its value is 94 ± 2%.

Question: And the “binding to CXCR4 (N119A) (in words)” value [22]?
Answer: The value was “clearly bind to the mutant receptor”.

Question: And the “functional profile on CXCR4 (N119A) (in words)” value (“functional profile on CXCR4” below) [1]?
Answer: The value was “Only antagonistic but no significant inverse agonistic activities”.

Question: And the “displacement of [^125I]-238D2 (in words)” value [23]?
Answer: Its value is “affinities comparable to those obtained against [^125I]-CXCL12”.

Question: What about the “[^125I]-238D2 Displacem. (%)” value [23, 25] of the same molecule?
Answer: Its value is 102 ± 1%.

Question: And the “displacement of [^125I]-238D4 (in words)” value [24]?
Answer: Its value is “affinities comparable to those obtained against [^125I]-CXCL12”.

Question: What about the “[^125I]-238D4 Displacem. (%)” value [24, 25] of the same molecule?
Answer: Its value is 99 ± 4%.

B1: L3: bivalent fusion product 238D2-15GS-238D4, SEQ ID NO: 4 (protein)
chain: EVQLVESGGGLVQTGGSLRLSCAASGFTFSSYAMSWVRQAPGKGLEWVSGIKSSGDSTRYAGSVKGRFTISRDNAKNMLYLQMYSLKPEDTAVYYCAKSRVSRTGLYTYDNRGQGTQVTVSSGGGGSGGGGSGGGGSEVQLMESGGGLVQAGGSLRLSCAASGRTFNNYAMGWFRRAPGKEREFVAAITRSGVRSGVSAIYGDSVKDRFTISRDNAKNTLYLQMNSLKPEDTAVYTCAASAIGSGALRRFEYDYSGQGTQVTVSS
modifications: Nanobody construct
Question: How did the “binding affinities to CXCR4 (N119A) compared to wild type (in words)” value [22] turn out when B1 was run?
Answer: Its value is “somewhat less compared to the wild type receptor”.

Question: And the “binding to CXCR4 (N119A) (in words)” value [22]?
Answer: Its value is “able to bind to CXCR4 (N119A)”.

Question: What about the “reduction of the constitutively increased basal signalling of CXCR4 (N119A)” value [1] of the same molecule?
Answer: Its value is 64%.

Question: What about the “functional profile on CXCR4” value [1] of the same molecule?
Answer: Its value is “partial inverse agonists”.

B2: L8: bivalent fusion product 238D2-20GS-238D4, SEQ ID NO: 5 (protein)
chain: EVQLVESGGGLVQTGGSLRLSCAASGFTFSSYAMSWVRQAPGKGLEWVSGIKSSGDSTRYAGSVKGRFTISRDNAKNMLYLQMYSLKPEDTAVYYCAKSRVSRTGLYTYDNRGQGTQVTVSSGGGGSGGGGSGGGGSGGGGSEVQLMESGGGLVQAGGSLRLSCAASGRTFNNYAMGWFRRAPGKEREFVAAITRSGVRSGVSAIYGDSVKDRFTISRDNAKNTLYLQMNSLKPEDTAVYTCAASAIGSGALRRFEYDYSGQGTQVTVSS
modifications: Nanobody construct
Question: B2 was tested. Which “binding affinities to CXCR4 (N119A) compared to wild type (in words)” value [22] did it give?
Answer: The value was “somewhat less compared to the wild type receptor”.

Question: What about the “binding to CXCR4 (N119A) (in words)” value [22] of the same molecule?
Answer: Its value is “able to bind to CXCR4 (N119A)”.

Question: What about the “reduction of the constitutively increased basal signalling of CXCR4 (N119A)” value [1] of the same molecule?
Answer: The value was 65%.

Question: And the “functional profile on CXCR4” value [1]?
Answer: Its value is “partial inverse agonists”.
